Reference: publication PMC5094862 (Journal of the American Chemical Society, 2016)

B1: synthetic L-GroES (natural protein, E. coli, UniProt P0A6F9 1-97, looked up)
chain: MNIRPLHDRVIVKRKEVETKSAGGIVLTGSAAAKSTRGEVLAVGNGRILENGEVKPLDVKVGDIVIFNDGYGVKSEKIDNEEVLIMSESDILAIVEA
B2: recombinant GroES (natural protein, E. coli, UniProt P0A6F9 1-97, looked up)
chain: B1 chain

Target: the molecule itself
Test: SEC

Protein	binding result
B1	binds
B2	binds
